# Source: patent publication US20260297172 (published 2026)
# Residue numbers refer to the chain shown, from its start.
# T1: S100A8/A9 (human, UniProt P05109)
# T1 chain 1: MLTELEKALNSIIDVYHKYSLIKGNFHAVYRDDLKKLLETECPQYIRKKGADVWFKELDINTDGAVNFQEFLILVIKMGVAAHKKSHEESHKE
# T1 chain 2: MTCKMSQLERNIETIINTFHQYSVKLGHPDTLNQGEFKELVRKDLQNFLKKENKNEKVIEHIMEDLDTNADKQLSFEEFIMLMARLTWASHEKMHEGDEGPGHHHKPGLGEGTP
# T2: S100A9 (human, UniProt P06702)
# T2 chain: T1 chain 2
# T3: S100A8 (human, UniProt P05109)
# T3 chain: T1 chain 1
# B1: ROIS-2 (antibody, V domains shown)
# VH: NVQLVESGGGLIHPGGSLSLSCKASGFSFSSGCWVCWVRQAPGKGLEWVACIYTGDGDTYYADSVKGRFTISRTSSKTTVYLQMNSLRAEDTAVYYCASPQPGDITYLGFWGQGTLVTVSS
# VL: DIHMTQSPSSLSASVGDTVTITCQASQNINSYLSWYQQKPGKAPKLLISLASDLASGVPSRFSGSESGTDYTLTISSLQPEDFATYYCQGYFADSGSSGRSWAFGQGTKVEIKR
# B2: ROIS-1 (antibody, V domains shown)
# VH: B1 VH with K66R
# VL: B1 VL with K39E
# B3: ROIS-4 (antibody, V domains shown)
# VH: QVSLEESGGDLVQPGGSLRLACVASGFSFSSGCWVCWVRQAPGKGLEWVSCIYTGDGDTYYANSVRGRFTVSRKNSTTSVYLQMNSLRADDTALYFCASPQPGDITYLGFWGPGTLVTVSS
# VL: B1 VL
# B4: ROIS-3 (antibody, V domains shown)
# VH: B3 VH with K74Q
# VL: B1 VL
# B5: ROIS-5 (antibody, V domains shown)
# VH: B3 VH with K74R
# VL: B1 VL
# B6: 8H6-HC (antibody, V domains shown)
# VH: CQSLEESGGDLVKPEGSLTLTCKASGFSFSSGCWVCWVRQAPGKGLEWIACIYTGDGDTYYANWARGRFTVSRTSSTTVTLQLTSLTAADTATYFCASPQPGDITYLGFWGPGTLVTVSS
# VL: DIVMTQTPASVSEPVGGTVTIKCQASQNINSYLSWYQQRPGQPPKLLISLASDLASGVPSRFKGSESGTDYTLTISDLECADAATYYCQGYFADSGSSGRSWAFGGGTEVVVQG
# B7: 6C8-mIgG2a (antibody, V domains shown)
# VH: QEQLVESGGGLVTLGGSLKLSCKASGIDFSIYGISWVRQAPGKGLEWIAYIYPDYSTTDYASWVNGRFTISFDNAQNTVFLEMTSLTAADTATYFCARRYSGYYGLWGPGTLVTVSS
# VL: ALVMTQTPSSVSAPVGGTVTIKCQASQSISSYLAWYQQKPGQRPKLLIYGASSLESGVPSRFKGSGSGTEYTLTISDLECDDAATYYCQGAHAGSSADAFGGGTEVVVKG
# B8: 8H6-mIgG2a (antibody, V domains shown)
# VH: B6 VH
# VL: B6 VL
# B9: 14G9 (antibody, V domains shown)
# VH: QEQLVESGGGLVQPEGSLTLTCTASGFSFSSDYYMCWVRQAPGKGLEWIACIGGGYGGSPYYATWAKGRFTISKTSSTAVTLQMTSLTAADTATHFCARGVPGSSCFFDLWGPGTLVTVSS
# VL: DVAMTQTPASVSEPVGGTVTIKCQASQSIGSSLAWYQQKSGQPPKLLIYDAFDLASGVSSRFKGSGSGTEYTLTISDLECADAATYFCLGGYYDANTFGGGTEVVVKG
# B10: 8H6 (antibody, V domains shown)
# VH: B6 VH
# VL: B6 VL
# B11: 6C8 (antibody, V domains shown)
# VH: B7 VH
# VL: B7 VL
# Target: T1, S100A8/A9
# Assay: BLI
row,Kd [nM],Binder
1,0.608,B1
2,0.789,B2
3,1.76,B3
4,0.0477,B4
5,0.623,B5
6,1.37,B6

# Target: T1, S100A8/A9
# Assay: competition ELISA, blocking CD69 binding
row,IC50 [µg/mL],Binder
1,~2.5,B7
2,~1.25,B8

# Target: T2, S100A9
# Assay: ELISA
row,binding result,Binder
1,no binding,B9
2,no binding,B10

# Target: T3, S100A8
# Assay: ELISA
row,binding result,Binder
1,no binding,B9
2,no binding,B11
